In patent US20260242732A1:
Where two headings read alike, the source gives them in different places.

Legend:
[1] = target: recombinant human P-selectin (human) (UniProt P16109)
[2] = target: recombinant human P-selectin (human) (UniProt P16109); remark: listed apart in the source

Sequence of UniProt P16109 (P16109 42-771 limits assumed): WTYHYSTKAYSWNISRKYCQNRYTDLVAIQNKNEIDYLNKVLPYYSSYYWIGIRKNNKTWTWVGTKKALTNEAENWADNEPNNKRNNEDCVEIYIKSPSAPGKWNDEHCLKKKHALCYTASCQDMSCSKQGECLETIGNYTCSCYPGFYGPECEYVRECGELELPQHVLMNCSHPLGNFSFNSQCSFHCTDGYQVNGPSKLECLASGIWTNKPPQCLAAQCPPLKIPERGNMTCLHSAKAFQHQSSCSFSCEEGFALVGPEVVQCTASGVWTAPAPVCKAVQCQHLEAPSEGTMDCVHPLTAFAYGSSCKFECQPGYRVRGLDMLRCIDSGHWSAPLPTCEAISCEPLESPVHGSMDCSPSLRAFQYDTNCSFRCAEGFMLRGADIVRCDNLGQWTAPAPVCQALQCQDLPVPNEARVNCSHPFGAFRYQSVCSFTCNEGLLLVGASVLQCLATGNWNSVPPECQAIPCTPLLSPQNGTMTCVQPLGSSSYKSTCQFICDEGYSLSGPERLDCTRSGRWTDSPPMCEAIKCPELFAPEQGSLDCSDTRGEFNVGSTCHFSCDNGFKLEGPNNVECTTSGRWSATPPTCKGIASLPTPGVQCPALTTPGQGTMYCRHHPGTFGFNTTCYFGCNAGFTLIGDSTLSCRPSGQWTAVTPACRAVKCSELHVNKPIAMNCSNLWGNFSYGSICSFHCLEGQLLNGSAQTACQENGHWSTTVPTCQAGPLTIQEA

| Freq. of mCherry+ (BFP+ cells) at 1 ng/uL rhp-selectin [1] [%] | Freq. of mCherry+ (BFP+ cells) at 10 ng/uL rhp-selectin [1] [%] | Freq. of mCherry+ (BFP+ cells) at 25 ng/uL rhp-selectin [1] [%] | Freq. of mCherry+ (BFP+ cells) at 50 ng/uL rhp-selectin [1] [%] | Freq. of mCherry+ (BFP+ cells) at 100 ng/uL rhp-selectin [1] [%] | Freq. of mCherry+ (BFP+ cells) at 1 ng/uL rhp-selectin [2] [%] | Freq. of mCherry+ (BFP+ cells) at 10 ng/uL rhp-selectin [2] [%] | Freq. of mCherry+ (BFP+ cells) at 25 ng/uL rhp-selectin [2] [%] | Freq. of mCherry+ (BFP+ cells) at 50 ng/uL rhp-selectin [2] [%] | Freq. of mCherry+ (BFP+ cells) at 100 ng/uL rhp-selectin [2] [%] | Binder |
| --- | --- | --- | --- | --- | --- | --- | --- | --- | --- | --- |
| 2.1 | 13.2 | 15.6 | 15.8 | 12.1 |  |  |  |  |  | LH (Crizanlizumab) scFv synNotch receptor (receptor, part only; not given: Myc tag, Notch core, Gal4, part only) chain, part: DIQMTQSPSSLSASVGDRVTITCKASQSVDYDGHSYMNWYQQKPGKAPKLLIYAASNLESGVPSRFSGSGSGTDFTLTISSLQPEDFATYYCQQSDENPLTFGGGTKVEIKRGGGGSGGGGSGGGGSQVQLVQSGAEVKKPGASVKVSCKVSGYTFTSYDINWVRQAPGKGLEWMGWIYPGDGSIKYNEKFKGRVTMTVDKSTDTAYMELSSLRSEDTAVYYCARRGEYGNYEGAMDYWGQGTLVTVSS |
|  |  |  |  |  | 16.2 | 33 | 32.2 | 25.4 | 18.4 | HL (Crizanlizumab) scFv synNotch receptor (receptor, part only; not given: Myc tag, Notch core, Gal4, part only) chain, part: QVQLVQSGAEVKKPGASVKVSCKVSGYTFTSYDINWVRQAPGKGLEWMGWIYPGDGSIKYNEKFKGRVTMTVDKSTDTAYMELSSLRSEDTAVYYCARRGEYGNYEGAMDYWGQGTLVTVSSGGGGSGGGGSGGGGSDIQMTQSPSSLSASVGDRVTITCKASQSVDYDGHSYMNWYQQKPGKAPKLLIYAASNLESGVPSRFSGSGSGTDFTLTISSLQPEDFATYYCQQSDENPLTFGGGTKVEIKR |
